Assay [1] deals with recombinant gp120 from the primary isolate HIV-1JR-FL (HIV-1JR-FL). Briefly: modified ELISA, gp120 captured on plate.
Assay [2] deals with recombinant gp120 from the laboratory-adapted strain HIV-1LAI (HIV-1LAI) (UniProt P03377). Briefly: modified ELISA, gp120 captured on plate.
Assay [3] addresses HIV-1LAI envelope glycoprotein gp120/gp41 on cells (HIV-1LAI) (UniProt P03377).
In assay [4] the target is HIV-1JR-FL envelope glycoprotein gp120/gp41 on cells (HIV-1JR-FL).
Assay [5] shares this target. The source holds these as a separate data set.

Read-outs that look alike come from different tables or passages of the source.

For the substance “CD4-IgG2 chimeric heterotetramer (Fc fusion)”, the values for the EC50 in assay [1] and in assay [2] were 1.27 nM and 1.47 nM, respectively.

On to ^125I-CD4-IgG2 (Fc fusion), for which the EC50 in assay [3] is 19 nM; in assay [4], 12.8 nM; in assay [5], 10 to 40 nM; in assay [1], 2.36 nM; in assay [2], 1.05 nM.

These data come from patent publication US20020052481A1.
